Experimental data taken from patent US20180258172A1 (ZymoGenetics, published 2018).

T1: NKp30/mFc2
T1 construct: also called soluble NKp30 fusion protein; NKp30/mFc2-biotin
T1 chain: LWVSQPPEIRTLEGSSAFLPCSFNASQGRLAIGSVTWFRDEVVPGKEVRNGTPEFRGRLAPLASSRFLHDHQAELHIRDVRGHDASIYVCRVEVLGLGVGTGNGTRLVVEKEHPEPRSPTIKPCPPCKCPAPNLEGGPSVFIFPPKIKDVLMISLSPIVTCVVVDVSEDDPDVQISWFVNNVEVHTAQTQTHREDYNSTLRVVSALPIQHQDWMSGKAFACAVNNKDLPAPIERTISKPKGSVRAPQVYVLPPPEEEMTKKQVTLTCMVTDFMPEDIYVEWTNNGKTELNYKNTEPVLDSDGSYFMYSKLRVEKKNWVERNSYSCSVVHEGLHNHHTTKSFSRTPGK

T2: human zB7H6 (full-length, on cells) (human, UniProt Q68D85 25-454)
T2 construct: also called hzB7H6; hypothetical protein DKFZP686I21167
T2 sequence: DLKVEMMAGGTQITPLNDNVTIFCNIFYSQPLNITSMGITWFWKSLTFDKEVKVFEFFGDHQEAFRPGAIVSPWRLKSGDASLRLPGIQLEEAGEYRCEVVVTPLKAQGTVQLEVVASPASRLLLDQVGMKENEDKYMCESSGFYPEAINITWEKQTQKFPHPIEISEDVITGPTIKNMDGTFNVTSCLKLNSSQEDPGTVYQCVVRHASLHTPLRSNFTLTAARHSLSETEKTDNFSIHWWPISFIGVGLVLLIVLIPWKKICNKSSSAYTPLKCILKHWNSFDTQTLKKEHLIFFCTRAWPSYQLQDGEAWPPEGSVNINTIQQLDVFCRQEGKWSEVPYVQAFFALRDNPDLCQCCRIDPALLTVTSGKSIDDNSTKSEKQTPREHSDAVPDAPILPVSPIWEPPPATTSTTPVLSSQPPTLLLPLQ

B1: hzB7H6/VASP-His6 (ligand)
chain: DLKVEMMAGGTQITPLNDNVTIFCNIFYSQPLNITSMGITWFWKSLTFDKEVKVFEFFGDHQEAFRPGAIVSPWRLKSGDASLRLPGIQLEEAGEYRCEVVVTPLKAQGTVQLEVVASPASRLLLDQVGMKENEDKYMCESSGFYPEAINITWEKQTQKFPHPIEISEDVITGPTIKNMDGTFNVTSCLKLNSSQEDPGTVYQCVVRHASLHTPLRSNFTLTAARHSLSETEKTDNFSIHWWPEPRSGSGGSGGSDLQRVKQELLEEVKKELQKVKEEIIEAFVQELRGSGGHHHHHH
notes: also called human zB7H6/VASP; zB7H6 C(VASP)H6
B2: NKp30/VASP (receptor)
chain: LWVSQPPEIRTLEGSSAFLPCSFNASQGRLAIGSVTWFRDEVVPGKEVRNGTPEFRGRLAPLASSRFLHDHQAELHIRDVRGHDASIYVCRVEVLGLGVGTGNGTRLVVEKEHPEPRSGSGGSGGSDLQRVKQELLEEVKKELQKVKEEIIEAFVQELRGSGGHHHHHH
notes: no limits or signal peptide residues stated; also called soluble NKp30/VASP A1683F; NKp30/VASP-A647

Assays:
NKp30/mFc2 = molecular target: T1, NKp30/mFc2; assay: competition FACS: soluble zB7H6/VASP at 100-fold mass excess competed NKp30/mFc2-biotin binding to K562, 293F and P815 zB7H6 cells
Protocol: Cells were resuspended in PBS/2% FBS at a concentration of 1.5×10⁶ cells/ml (150,000 cells/sample). 100 μl samples were aliquoted with 100 μg/ml of whole human IgG (Jackson #009-000-003) included for Fc receptor blocking. NKp30/mFc2-biotin probe was added at a concentration of 2 μg/ml and 100-fold mass excess of a VASP protein (NKp30/VASP or human zB7H6/VASP) or a control VASP protein (B7H3/VASP). Cells were incubated for 1 hour on ice and washed with 2 ml cold PBS. Washed cells were resuspended in 100 μl of PBS/2% FBS with streptavidin-PE (BD:554061) at 1 μg/ml and incubated for 15 minutes on ice. Cells were then washed with 1 ml cold PBS, resuspended in 250 μl of PBS, and analyzed for PE staining on a FACSCalibur.

[1] = molecular target: T2, human zB7H6 (full-length, on cells); assay: competition FACS on K562 cells against NKp30/mFc2, 100-fold mass excess
Protocol: K562 cells were probed by FACS with a soluble form of NKp30 (NKp30/mFc2 (SEQ ID NO:8), containing the extracellular domain of NKp30 and a murine Fc fragment). K562 cells were resuspended in PBS/2% FBS at a concentration of 1.6×10⁶ cells/ml (160,000 cells/sample). 100 μl samples were aliquoted and 1 μl of whole human IgG (Jackson #009-000-003) added to each. NKp30/mFc2 probe was added at a concentration of 2 μg/ml together with 10 μg/ml Heparin and 100-fold mass excess of a VASP protein (NKp30/VASP or a control VASP protein, human zB7R1/VASP (SEQ ID NO:12) or B7-DC/VASP (SEQ ID NO:13)). Cells were incubated for 1 hour on ice and washed with 2 ml cold PBS. Washed cells were resuspended in 100 μl of PBS/2% FBS with 1 μl PE anti-mIgG (Jackson 115-116-071) and incubated for 30 minutes on ice. Cells were then washed twice with 2 ml cold PBS, resuspended in 500 μl of PBS, and analyzed for PE staining on a FACSCalibur.

Binder	binding result (NKp30/mFc2)	binding result [1]
B1	binds	
B2		binds
